# Source: US20260204353A1
# pEC50: −log10 of the molar value.
# Molecular target: - (UniProt P08069)
# Test: ELISA
# Settings: scFv
substance,measurement,value
"Teprotumumab scFv mutant into which the consensus sequences were introduced (H16G, L60D, and L85D)",pEC50,7.62
